Literature values in publication PMC4768738.

Legend:
[1] = target: ankyrin (Homo sapiens) (UniProt P16157)
[2] = target: p55 (Homo sapiens) (UniProt Q00013)
UniProt Q00013, sequence (Q00013 2-466): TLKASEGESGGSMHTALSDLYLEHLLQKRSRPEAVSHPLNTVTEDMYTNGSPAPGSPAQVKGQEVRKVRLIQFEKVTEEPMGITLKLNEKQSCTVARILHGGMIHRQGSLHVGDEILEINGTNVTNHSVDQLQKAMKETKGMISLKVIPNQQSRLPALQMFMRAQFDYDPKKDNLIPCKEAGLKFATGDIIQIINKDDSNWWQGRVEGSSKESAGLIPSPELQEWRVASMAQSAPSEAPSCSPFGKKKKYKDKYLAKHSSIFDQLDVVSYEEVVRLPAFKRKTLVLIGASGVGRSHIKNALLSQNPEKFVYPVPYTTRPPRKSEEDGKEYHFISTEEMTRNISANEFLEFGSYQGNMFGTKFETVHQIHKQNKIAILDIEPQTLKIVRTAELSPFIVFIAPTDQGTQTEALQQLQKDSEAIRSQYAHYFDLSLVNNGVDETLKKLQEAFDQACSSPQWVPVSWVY

UniProt P16157, sequence (P16157 whole entry): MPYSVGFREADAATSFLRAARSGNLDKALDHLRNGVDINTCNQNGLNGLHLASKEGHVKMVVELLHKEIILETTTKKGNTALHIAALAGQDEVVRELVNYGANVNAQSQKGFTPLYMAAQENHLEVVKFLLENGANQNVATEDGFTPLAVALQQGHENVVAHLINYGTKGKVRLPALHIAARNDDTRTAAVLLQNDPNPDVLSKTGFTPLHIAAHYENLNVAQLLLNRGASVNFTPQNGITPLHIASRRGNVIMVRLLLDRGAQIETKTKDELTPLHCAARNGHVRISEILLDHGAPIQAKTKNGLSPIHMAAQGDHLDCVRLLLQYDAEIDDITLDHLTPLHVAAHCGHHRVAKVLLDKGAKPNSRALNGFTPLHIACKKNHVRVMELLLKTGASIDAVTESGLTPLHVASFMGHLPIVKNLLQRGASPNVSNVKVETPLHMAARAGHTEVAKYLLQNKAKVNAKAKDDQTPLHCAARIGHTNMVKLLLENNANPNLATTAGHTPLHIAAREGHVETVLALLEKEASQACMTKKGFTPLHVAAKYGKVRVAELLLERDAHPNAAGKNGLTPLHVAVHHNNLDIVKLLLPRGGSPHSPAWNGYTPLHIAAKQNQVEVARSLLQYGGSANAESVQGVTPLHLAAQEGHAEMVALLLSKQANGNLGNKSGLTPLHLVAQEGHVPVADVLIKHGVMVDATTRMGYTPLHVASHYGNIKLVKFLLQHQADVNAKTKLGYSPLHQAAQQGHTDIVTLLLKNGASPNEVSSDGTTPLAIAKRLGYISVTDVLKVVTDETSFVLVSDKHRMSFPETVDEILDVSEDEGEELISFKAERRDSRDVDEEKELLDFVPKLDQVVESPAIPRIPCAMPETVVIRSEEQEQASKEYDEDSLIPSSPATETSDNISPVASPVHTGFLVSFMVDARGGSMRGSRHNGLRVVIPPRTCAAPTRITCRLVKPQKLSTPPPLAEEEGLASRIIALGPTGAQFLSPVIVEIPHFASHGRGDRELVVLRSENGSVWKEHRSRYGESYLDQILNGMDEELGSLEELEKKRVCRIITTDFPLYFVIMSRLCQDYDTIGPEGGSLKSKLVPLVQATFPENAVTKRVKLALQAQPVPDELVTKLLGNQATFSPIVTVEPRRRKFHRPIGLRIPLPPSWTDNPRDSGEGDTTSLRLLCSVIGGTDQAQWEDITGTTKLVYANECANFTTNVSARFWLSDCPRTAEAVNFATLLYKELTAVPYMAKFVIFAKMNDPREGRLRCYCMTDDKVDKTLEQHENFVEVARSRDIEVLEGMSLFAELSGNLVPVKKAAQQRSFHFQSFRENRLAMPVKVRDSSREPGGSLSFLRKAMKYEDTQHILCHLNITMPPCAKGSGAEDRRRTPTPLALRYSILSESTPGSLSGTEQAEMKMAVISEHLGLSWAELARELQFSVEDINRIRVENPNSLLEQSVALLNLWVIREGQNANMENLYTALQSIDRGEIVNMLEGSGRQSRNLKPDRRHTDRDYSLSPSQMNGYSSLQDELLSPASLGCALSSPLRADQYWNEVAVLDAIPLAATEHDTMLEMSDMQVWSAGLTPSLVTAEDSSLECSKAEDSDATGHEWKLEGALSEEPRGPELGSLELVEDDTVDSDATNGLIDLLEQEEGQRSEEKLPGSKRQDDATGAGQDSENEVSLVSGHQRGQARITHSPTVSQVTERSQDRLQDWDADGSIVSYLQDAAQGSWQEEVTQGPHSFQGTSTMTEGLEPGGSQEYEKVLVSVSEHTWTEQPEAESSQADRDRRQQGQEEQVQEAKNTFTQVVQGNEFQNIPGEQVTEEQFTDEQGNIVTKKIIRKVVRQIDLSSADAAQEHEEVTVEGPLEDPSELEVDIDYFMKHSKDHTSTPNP

Which Kd [1] does the source give for protein 4.2 (from UniProt P16452) here?
The Kd was 100 nM.

Which Kd [2] does the source give for protein 4.1R (from UniProt P11171) here?
The Kd was 100 nM.
